Assay results as given in patent US20260234272A1 (SCHOLAR ROCK, published 2026).
Positions count from the first letter of the chain named.

Experiments:
[1] = biological target: T1, human LTBP1-proTGFβ1 complex (human, UniProt Q14766 347-1721; P01137 30-390); experiment: Octet binning: 500 nM complex pre-incubated with 1 µM first antibody SR-AB13; competitor: second antibody SR-AB1 on AHC tip
T1 construct: Complex of presenting molecule LTBP1 disulfide-linked to a proTGFβ1 homodimer; also called proTGFβ1:LTBP1 complex; LTBP1-TGFβ1 complex

[2] = biological target: T1, human LTBP1-proTGFβ1 complex; experiment: Octet binning: 500 nM complex pre-incubated with 1 µM first antibody SR-AB13; competitor: second antibody SR-AB2 on AHC tip
[3] = biological target: T1, human LTBP1-proTGFβ1 complex; experiment: Octet binning: 500 nM complex pre-incubated with 1 µM first antibody SR-AB13; competitor: second antibody SR-AB10 on AHC tip
[4] = biological target: T1, human LTBP1-proTGFβ1 complex; experiment: Octet binning: 500 nM complex pre-incubated with 1 µM first antibody SR-AB13; competitor: second antibody SR-AB13 on AHC tip
[5] = biological target: T1, human LTBP1-proTGFβ1 complex; experiment: Octet binning: 500 nM complex pre-incubated with 1 µM first antibody SR-AB10; competitor: second antibody SR-AB10 on AHC tip
Protocol: (§1) 500 nM of human LTBP1-proTGFβ1 complex was pre-incubated with 1 μM of each test antibody. After an overnight incubation, the LTBP1-[…] first antibody was tested for binding to a second antibody which was immobilized to an Anti-Human IgG Fc Capture (AHC) sensor tip at 67 nM.
(§2) Binding of the complex to a specific second antibody was normalized to the uninhibited interaction, that is the complex in the presence of HuNeg control antibody. Normalized responses less than 70% or 0.7 of the uninhibited interaction were considered antibodies that cross block.

[6] = biological target: T1, human LTBP1-proTGFβ1 complex; experiment: Octet binning: 500 nM complex pre-incubated with 1 µM first antibody SR-AB10; competitor: second antibody SR-AB2 on AHC tip
Protocol: as §1, §2

GARP-proTGFβ1 complex = biological target: T2, GARP-proTGFβ1 complex (human, UniProt Q14392 20-627; P01137 30-390, limits assumed); experiment: Octet, yeast expressed IgG1Agly; concentration not shown
T2 construct: In the cell assays GARP was overexpressed from a human plasmid (whole, on cells); also called GARP-TGFβ1

[7] = biological target: T1, human LTBP1-proTGFβ1 complex; experiment: Octet binning: 500 nM complex pre-incubated with 1 µM first antibody SR-AB10; competitor: second antibody SR-AB1 on AHC tip
Protocol: as §1, §2

[8] = biological target: T1, human LTBP1-proTGFβ1 complex; experiment: Octet binning: 500 nM complex pre-incubated with 1 µM first antibody SR-AB10; competitor: second antibody SR-AB13 on AHC tip
Protocol: as §1, §2

[9] = biological target: T1, human LTBP1-proTGFβ1 complex; experiment: Octet binning: 500 nM complex pre-incubated with 1 µM first antibody SR-AB2; competitor: second antibody SR-AB10 on AHC tip
Protocol: as §1, §2

[10] = biological target: T1, human LTBP1-proTGFβ1 complex; experiment: Octet binning: 500 nM complex pre-incubated with 1 µM first antibody SR-AB2; competitor: second antibody SR-AB1 on AHC tip
Protocol: as §1, §2

[11] = biological target: T1, human LTBP1-proTGFβ1 complex; experiment: Octet binning: 500 nM complex pre-incubated with 1 µM first antibody SR-AB2; competitor: second antibody SR-AB2 on AHC tip
Protocol: as §1, §2

[12] = biological target: T1, human LTBP1-proTGFβ1 complex; experiment: Octet binning: 500 nM complex pre-incubated with 1 µM first antibody SR-AB2; competitor: second antibody SR-AB13 on AHC tip
Protocol: as §1, §2

T1 sequence (Q14766 347-1721 limits assumed, chain 1 of 2): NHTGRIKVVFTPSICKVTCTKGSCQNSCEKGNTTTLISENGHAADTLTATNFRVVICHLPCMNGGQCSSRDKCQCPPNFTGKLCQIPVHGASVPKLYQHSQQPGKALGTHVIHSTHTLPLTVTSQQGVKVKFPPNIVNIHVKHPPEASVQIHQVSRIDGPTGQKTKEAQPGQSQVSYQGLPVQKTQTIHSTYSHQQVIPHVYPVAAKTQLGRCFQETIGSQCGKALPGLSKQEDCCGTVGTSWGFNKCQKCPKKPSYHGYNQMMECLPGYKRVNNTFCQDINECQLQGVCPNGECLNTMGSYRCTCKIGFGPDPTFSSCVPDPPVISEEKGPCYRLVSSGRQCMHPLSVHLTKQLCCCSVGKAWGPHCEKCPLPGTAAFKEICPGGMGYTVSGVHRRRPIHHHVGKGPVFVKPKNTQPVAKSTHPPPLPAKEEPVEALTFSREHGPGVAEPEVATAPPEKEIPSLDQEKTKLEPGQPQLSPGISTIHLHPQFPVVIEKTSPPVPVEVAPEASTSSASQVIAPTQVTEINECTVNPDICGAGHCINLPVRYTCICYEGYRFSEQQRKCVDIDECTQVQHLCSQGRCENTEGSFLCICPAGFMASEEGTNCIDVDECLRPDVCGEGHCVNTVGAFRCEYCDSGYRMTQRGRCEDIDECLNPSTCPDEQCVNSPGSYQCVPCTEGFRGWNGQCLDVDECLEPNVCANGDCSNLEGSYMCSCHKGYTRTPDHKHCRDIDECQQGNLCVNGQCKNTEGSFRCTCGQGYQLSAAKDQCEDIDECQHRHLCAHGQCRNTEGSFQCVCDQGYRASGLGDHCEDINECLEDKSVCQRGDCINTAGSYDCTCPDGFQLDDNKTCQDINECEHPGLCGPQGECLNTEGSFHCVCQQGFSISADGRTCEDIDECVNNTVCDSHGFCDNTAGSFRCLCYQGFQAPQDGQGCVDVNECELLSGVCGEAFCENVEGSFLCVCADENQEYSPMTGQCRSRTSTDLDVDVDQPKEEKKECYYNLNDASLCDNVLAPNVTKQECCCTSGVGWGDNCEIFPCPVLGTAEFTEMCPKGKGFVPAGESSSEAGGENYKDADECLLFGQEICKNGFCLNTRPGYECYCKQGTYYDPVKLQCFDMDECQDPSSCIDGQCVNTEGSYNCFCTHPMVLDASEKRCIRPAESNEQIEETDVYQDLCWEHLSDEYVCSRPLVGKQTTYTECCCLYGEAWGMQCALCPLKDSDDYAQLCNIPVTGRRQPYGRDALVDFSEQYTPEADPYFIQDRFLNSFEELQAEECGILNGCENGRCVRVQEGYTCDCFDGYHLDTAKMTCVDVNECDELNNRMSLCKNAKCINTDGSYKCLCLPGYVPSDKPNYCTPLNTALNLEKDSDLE
T1 sequence (P01137 30-390 limits assumed, chain 2 of 2): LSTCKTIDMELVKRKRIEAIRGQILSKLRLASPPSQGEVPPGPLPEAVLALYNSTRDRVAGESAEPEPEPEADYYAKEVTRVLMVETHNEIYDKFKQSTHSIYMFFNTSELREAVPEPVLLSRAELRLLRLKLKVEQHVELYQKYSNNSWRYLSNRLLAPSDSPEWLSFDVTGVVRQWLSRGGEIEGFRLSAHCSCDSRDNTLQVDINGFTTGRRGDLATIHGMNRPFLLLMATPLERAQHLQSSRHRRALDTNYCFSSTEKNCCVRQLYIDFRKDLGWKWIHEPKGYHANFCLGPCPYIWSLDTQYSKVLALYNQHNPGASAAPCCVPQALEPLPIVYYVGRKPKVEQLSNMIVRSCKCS
T2 sequence (Q14392 20-627 limits assumed, chain 1 of 2): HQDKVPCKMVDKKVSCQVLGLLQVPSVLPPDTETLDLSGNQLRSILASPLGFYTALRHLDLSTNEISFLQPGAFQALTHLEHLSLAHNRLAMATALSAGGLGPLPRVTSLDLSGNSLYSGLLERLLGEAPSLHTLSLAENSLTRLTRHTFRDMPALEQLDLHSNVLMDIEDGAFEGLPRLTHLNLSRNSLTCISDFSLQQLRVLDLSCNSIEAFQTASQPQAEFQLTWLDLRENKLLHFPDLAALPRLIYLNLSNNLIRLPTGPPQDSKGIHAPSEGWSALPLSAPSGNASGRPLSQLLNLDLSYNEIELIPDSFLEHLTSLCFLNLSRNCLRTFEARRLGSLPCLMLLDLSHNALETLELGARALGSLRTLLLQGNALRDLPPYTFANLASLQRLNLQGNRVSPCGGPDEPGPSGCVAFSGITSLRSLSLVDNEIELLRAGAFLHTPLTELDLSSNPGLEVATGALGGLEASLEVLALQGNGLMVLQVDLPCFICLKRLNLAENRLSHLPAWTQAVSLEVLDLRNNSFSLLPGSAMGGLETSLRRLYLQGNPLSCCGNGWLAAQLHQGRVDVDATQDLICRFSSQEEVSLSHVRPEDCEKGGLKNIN
T2 sequence (P01137 30-390 limits assumed, chain 2 of 2): as the sequence (P01137 30-390 limits assumed, chain 2 of 2) above

B1: SR-AB13 (antibody, V domains shown)
VH: QLQLQESGPGLVKPSETLSLTCTVSGGSISSSSYYWGWIRQPPGKGLEWIGSISYSGSTYYNPSLKSRVTISVDTSKNQFSLKLSSVTAADTAVYYCARDPSYDSIAGMDVWGQGTTVTVSS
VL: DIQLTQSPSSLSASVGDRVTITCRASQSISSYLNWYQQKPGKAPKLLIYAASNLQSGVPSRFSGSGSGTDFTLTISSLQPEDFATYYCQQSFDFPFTFGGGTKVEIK
normalized response (relative to HuNeg control) [1]: 1.08 fraction of uninhibited interaction
normalized response (relative to HuNeg control) [2]: 1.29 fraction of uninhibited interaction
normalized response (relative to HuNeg control) [3]: 1.38 fraction of uninhibited interaction
normalized response (relative to HuNeg control) [4]: 0.47 fraction of uninhibited interaction

B2: SR-AB10 (antibody, V domains shown)
VH: QLQLQESGGGVVQPGRSLRLSCAASGFTFNNYPIHWVRQAPGKGLEWVAVMSYDGINKYYADSVKGRFTISRDNSKNTLYLQMNSLRAEDTAVYYCARPRIAARRGGFDYWGQGTLVTVSS
VL: NFMLTQPHSVSESPGKTVTISCTRSSGNIDNNYVQWYQQRPGSSPTTVIYEDNQRPSGVPDRFSGSIDSSSNSASLTISGLKTEDEADYYCQSYDSDNQGVVFGGGTKLTVL
normalized response (relative to HuNeg control) [5]: 0.51 fraction of uninhibited interaction
normalized response (relative to HuNeg control) [6]: 1.53 fraction of uninhibited interaction
binding result (GARP-proTGFβ1 complex): no binding
normalized response (relative to HuNeg control) [7]: 0.82 fraction of uninhibited interaction
normalized response (relative to HuNeg control) [8]: 1.27 fraction of uninhibited interaction

B3: SR-AB2 (antibody, V domains shown)
VH: QVQLVQSGAEVKKPGASVKVSCKASGYTFTSYGISWVRQAPGQGLEWMGWISAYNGNTNYAQKLQGRVTMTTDTSTSTAYMELRSLRSDDTAVYYCARAPLGNFDSWGQGTMVTVSS
VL: B2 VL with N28S, D30A, N31S, D97S, Q99H, G100P
normalized response (relative to HuNeg control) [9]: 1.54 fraction of uninhibited interaction
normalized response (relative to HuNeg control) [10]: 1.11 fraction of uninhibited interaction
normalized response (relative to HuNeg control) [11]: 0.47 fraction of uninhibited interaction
normalized response (relative to HuNeg control) [12]: 1.31 fraction of uninhibited interaction
